Laboratory results taken from patent publication US20250034551A1, “METHODS AND SYSTEMS FOR HIGH-THROUGHPUT BIOCHEMICAL SCREENS” (THINK BIOSCIENCE, INC., priority 2021, published 2025).

Molecular target: kinase substrate domain (MidT) fused to the omega subunit of RNA polymerase (RpoZ), no protease recognition site in the linker, P0A800
Sequence (P0A800 whole entry, looked up, the tested form may be a part): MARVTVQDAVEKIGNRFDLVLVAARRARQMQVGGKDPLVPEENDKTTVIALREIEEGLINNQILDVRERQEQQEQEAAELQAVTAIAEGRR

B1: Striatum-enriched protein-tyrosine phosphatase catalytic domain (STEP282-563) (protein)
chain: MSSGVDLGTENLYFQSMSRVLQAEELHEKALDPFLLQAEFFEIPMNFVDPKEYDIPGLVRKNRYKTILPNPHSRVCLTSPDPDDPLSSYINANYIRGYGGEEKVYIATQGPIVSTVADFWRMVWQEHTPIIVMITNIEEMNEKCTEYWPEEQVAYDGVEITVQKVIHTEDYRLRLISLKSGTEERGLKHYWFTSWPDQKTPDRAPPLLHLVREVEEAAQQEGPHCAPIIVHCSAGIGRTGCFIATSICCQQLRQEGVVDILKTTCQLRQDRGGMIQTCEQYQFVHHVMSLYEKQLSHQS
spectinomycin resistance of E. coli with the PTP-specific B2H: did not yield functional two-hybrid systems, most likely due to low activity against the MidT substrate
